The text below walks through data of the supplement of paper PMC9170038.

For the series, the system named is MS2 coat protein. Put plainly: apparent KD of MS2 coat protein; designed switch direction (-1 OFF switch, 1 ON switch): -1; higher = weaker reporter binding. The method in brief:
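On Illumina chips, designed RNA switches with common flanks were made by stalled E. coli RNA polymerase. Titrations with SNAP-549-labelled MS2 coat protein, doubling from 0.7 or 1.5 nM to 3 µM, were done with no input, with 200 uM small-molecule ligand, or with an oligonucleotide input. Apparent KD is the median per design over clusters, from curve fits of normalised cluster fluorescence.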

Setting [1] is: Eterna round: R95, input ligand: FMN 200 uM.
The mark [2] stands for this setting: Eterna round: R95, input ligand: microRNA oligo, concentration not stated.
Setting [3] is: Eterna round: R95, input ligand: none.
[4] abbreviates: input ligand: microRNA oligo, concentration not stated.

Turning to “ACUUAUAGAGGAUAUACAGAUUAUUACAUGAGGAUCACCCAUGUUCUUCAAUGUAUAUAUGUAGAAGGCUAAGGAU [Mat - Exclusion 5 - JL Mod - D8] (Eterna round: R97, puzzle: Exclusion 5)”, the “apparent KD of MS2 coat protein” value was determined as 192 nM (input ligand: FMN 200 uM) and 75.9 nM (input ligand: none).

Regarding “ACUUCACAUGAGGAUCACCCAUGUGAGGAUAUCGUCGAGGAUGUAAUGCCAUCCGUGGCGAGAAGGCGCAUGGG [Exclusion 1 (Mod1.1 solution 40 by Eternabot)] (Eterna round: R97, puzzle: Exclusion 1)”, the “apparent KD of MS2 coat protein” value was 28.5 nM (input ligand: FMN 200 uM) and 79.8 nM (input ligand: none).

For the sequence “ACUUGCUAUUUGCUCGUCUUAUUUUUGUUUAUUUACUAUACAUGAGGAUCACCCAUGUUAUAUUUAAGGGUGUGAUA [JR_SV3TOV2_Sub074] (puzzle: Sensor v3, turn-off variant 2)”, the “apparent KD of MS2 coat protein” value worked out at 270 nM under setting [1], 334 nM under setting [2] and 259 nM under setting [3].

Turning to “ACUUGUAGAGGAUAUACGAGGGCCCAAGCGGCGAGAGCCGCACAUGAGGAUCACCCAUGUAGAAGGCUACUAUU [JL-ex2-4.25 ViennaUCT mod] (Eterna round: R97, puzzle: Exclusion 2)”, the “apparent KD of MS2 coat protein” value (input ligand: FMN 200 uM) was 374 nM and the “apparent KD of MS2 coat protein” value (input ligand: none) turned out to be 116 nM.

For the sequence “ACUUGUUGUCCUUGAUAUUACAUGAGGAUCACCCAUGUUAUUGUGAUUUUGAUGUGUAAGUUUGUUGCUCGUCUUAU [JR_STOV1_Sub064] (Eterna round: R97, puzzle: Sensor, turn-off variant 1)”, the “apparent KD of MS2 coat protein” value is, setting by setting: (input ligand: FMN 200 uM) 70.2 nM; (input ligand: none) 71.5 nM.

Consider “ACUUGUUGUCCUUGAUUUUACAUGAGGAUCACCCAUGUUAUUUUGAUUAUGAUGUGUAAGUUUGUUGCUCGUUUUAU [JR_STOV1_Sub067] (Eterna round: R97, puzzle: Sensor, turn-off variant 1)”, for which the “apparent KD of MS2 coat protein” value reads like this: (input ligand: FMN 200 uM) 61.9 nM; (input ligand: none) 67.4 nM.

“AGAAAACGAGGAUAUACGUGCAUAUUCUCGCCCAAUGGGCAACAUGAGGAUCACCCAUGUAGAAGGCGUAAAGA [Dienoror] (puzzle: Exclusion 2)”: the “apparent KD of MS2 coat protein” value under setting [2] stood at 34.6 nM.

“AGAAAUGCCCAUGGCCACAAGCUUUUUGCUUGUCUUACUACAUGAGGAUCACCCAUGUACCAUGGGCUCCUGAUAAU [Anxemaes] (puzzle: Sensor v3, turn-off variant 2)”: the “apparent KD of MS2 coat protein” value turned out to be 13.8 nM under setting [1], 9.75 nM under setting [2] and 10.4 nM under setting [3].

“AGAAAUGCCCAUGGCCGCAAGCUUUUUGCUUGUCUUACCACAUGAGGAUCACCCAUGUGACAUGGGCUCCUGAUAAU [Bivequ] (puzzle: Sensor v3, turn-off variant 2)”: the “apparent KD of MS2 coat protein” value reads like this: under setting [1], 13.7 nM; under setting [2], 10.7 nM; under setting [3], 12.1 nM.

Regarding “AGAAGUAGUAACCGAUCCUACAUGAGGAUCACCCAUGUAGCAAGACGUGCACGCGAAGCUCGUCAGACUACCAGAUG [salish99_TOv1_r3_020] (puzzle: Sensor v3, turn-off variant 1)”, the “apparent KD of MS2 coat protein” value came out at 159 nM under setting [1], 252 nM under setting [2] and 242 nM under setting [3].

Turning to “AGAAGUGCCGAGGAUAUCCAGGCAAUCUCGUUCGGAGAAGGCGGCACUUGAGGAUCACCCAAGUGCUCCAAAAG [Essoatxe] (Eterna round: R97, puzzle: Exclusion 6)”, the “apparent KD of MS2 coat protein” value worked out at 59.2 nM (input ligand: FMN 200 uM) and 18.9 nM (input ligand: none).

Turning to “AGACAGUCAGGAUAUACAUGAGGAUCACCCAUGUUGAGAAGAGAAAGGGCAGGAAGAGGUAGAAGGGACAAGAA [JR_Exclu3_Sub034] (puzzle: Exclusion 3)”, the “apparent KD of MS2 coat protein” value by setting is: under setting [1], 21.3 nM; under setting [2], 25.7 nM; under setting [3], 29.3 nM.

Consider “AGAGAAUAGGUAGGAUAUCUUAAUAGAAAGAAUAGAGAAGGACCACAUGAGGAUCACCCAUGUGAUGUCUUGAGACUACAUGGU [Prohibition 32 - Jieux - Exclusion NG 1] (Eterna round: R96, puzzle: Exclusion NG 1)”, for which the “apparent KD of MS2 coat protein” value under setting [4] was 13.3 nM.

“AGAGAAUAGUCAGGAUAUCUUAAUAGAAAGAAUAGAGAAGGGACACAUGAGGAUCACCCAUGUGAAGUCUUGAGACUACAUGGU [Prohibition 30 - Jieux - Exclusion NG 1] (Eterna round: R96, puzzle: Exclusion NG 1)”: the “apparent KD of MS2 coat protein” value came out at 108 nM (input ligand: FMN 200 uM), 27.4 nM under setting [4] and 35.3 nM (input ligand: none).

For “AGAGAGUCAGGAUAUCGAAGGUAGAGAAAAGGAGAGAGGUACGAGAAGGGACAUGAGGAUCACCCAUGUAGGUG [JR_Exclusion4)Sub014] (puzzle: Exclusion 4)”, the “apparent KD of MS2 coat protein” value runs as follows: under setting [1], 526 nM; under setting [2], 286 nM; under setting [3], 381 nM.

For the sequence “AGAGAGUCAGGAUAUCGAAGGUAGAGAAAAGGAGAGUGGUACGAGAAGGGACAUGAGGAUCACCCAUGUAGGUG [JR_Exclusion4)Sub013] (puzzle: Exclusion 4)”, the “apparent KD of MS2 coat protein” value under setting [1] was 343 nM, the “apparent KD of MS2 coat protein” value under setting [2] was determined as 431 nM and the “apparent KD of MS2 coat protein” value under setting [3] turned out to be 441 nM.

Consider “AGAGCACAUGAGGAUCACCCAUGUCAGGAUAUCGACUGAACAGCUUCGGCUGUUCAGUCGAGAAGGGACAAUUA [Brourdxlusion 7 - Jieux - Exclusion 1] (Eterna round: R97, puzzle: Exclusion 1)”, for which the “apparent KD of MS2 coat protein” value reads like this: (input ligand: FMN 200 uM) 19.4 nM; (input ligand: none) 35 nM.

Turning to “AGAGGACAUGAGGAUCACCCAUGUAAGGAUAUGCGGAGAGUUUGGAGAGGUCGGGUAGGCAGAAGGUACAGGAG [JR_Exclu1_Sub050] (Eterna round: R96, puzzle: Exclusion 1)”, the “apparent KD of MS2 coat protein” value (input ligand: FMN 200 uM) is 48 nM, the “apparent KD of MS2 coat protein” value under setting [4] turned out to be 41 nM and the “apparent KD of MS2 coat protein” value (input ligand: none) was determined as 86.4 nM.

Consider “AGAGGACAUGAGGAUCACCCAUGUAAGGAUAUGCGGAGAGUUUGGAGAGGUCGGGUAGGCAGAAGGUACAGGAG [JR_Exclu1_Sub050] (puzzle: Exclusion 1)”, for which the “apparent KD of MS2 coat protein” value came out at 82.2 nM under setting [1], 92.5 nM under setting [2] and 89.4 nM under setting [3].

Turning to “AGAGUACAUGAGGAUCACCCAUGUUAGGAUAUGCAUAAUAAGAAGAAGAGAAGAGAGAGCAGAAGGAACAAGAG [Ex 1 M1] (puzzle: Exclusion 1)”, the “apparent KD of MS2 coat protein” value by setting is: under setting [1], 42.5 nM; under setting [2], 48 nM; under setting [3], 57.8 nM.

For “AGAGUGUGAGGAUAUACAUGAGGAUCACCCAUGUAAUAACAGGUUACGGGCGGCACCAGUAGAAGGCACUUGUC [Eternabot (L2) Solution 22] (Eterna round: R97, puzzle: Exclusion 3)”, the “apparent KD of MS2 coat protein” value (input ligand: FMN 200 uM) was determined as 42 nM and the “apparent KD of MS2 coat protein” value (input ligand: none) was found to be 28.2 nM.

Take “AGAUCACAUGAGGAUCACCCAUGUCAGGAUAUCAUCAUUGAAGCUUCGGCUUCAAUGAUGAGAAGGGACAUAAU [E1/2-B1] (Eterna round: R97, puzzle: Exclusion 1)”: the “apparent KD of MS2 coat protein” value reads like this: (input ligand: FMN 200 uM) 297 nM; (input ligand: none) 598 nM.

In the case of “AGAUCACAUGAGGAUCACCCAUGUCAGGAUAUCGUCACUGGAGCUUCGGCUCCAGUGACGAGAAGGGACAAUUA [E1/1-A3] (Eterna round: R97, puzzle: Exclusion 1)”, the “apparent KD of MS2 coat protein” value is, setting by setting: (input ligand: FMN 200 uM) 304 nM; (input ligand: none) 161 nM.
